Experimental findings from patent publication US20160038561A1 (SYNG PHARMACEUTICALS, published 2016) are described below.

No end group written: not given here. *: point of attachment. FITC = O=C1OC2(c3ccc(O)cc3Oc3cc(O)ccc32)c2ccc(NC(=S)*)cc21

For the assay, the target named is T1, Synuclein-gamma (SNCG) (UniProt O76070 1-127).
T1 construct: Intracellular protein in MCF7-SNCG cells; also called γ-synuclein; gamma synuclein
The assay can be described thus: co-immunoprecipitation with anti-SNCG antibody from treated MCF7-SNCG cell lysates, western blot with anti-FITC antibody. (In general: A western blot detects proteins with antibodies after separation by electrophoresis.)

T1 sequence (O76070 whole entry): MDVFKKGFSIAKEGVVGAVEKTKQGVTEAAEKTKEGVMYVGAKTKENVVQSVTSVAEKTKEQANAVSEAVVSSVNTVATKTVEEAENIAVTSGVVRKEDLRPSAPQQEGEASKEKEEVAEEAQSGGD

B1: FITC tagged GYGRKKRRQRRR (TAT) alone (peptide)
peptide: {FITC}-GYGRKKRRQRRR
notes: Control peptide in the co-immunoprecipitation; also called TAT CTL; control peptide
As for B1, the binding result is on record as “no binding”.
